Measurements: paper PMC5473807, “Distribution and kinetics of the Kv1.3-blocking peptide HsTX1[R14A] in experimental rats” (Scientific Reports, 2017)
Where two headings read alike, the source gives them in different places.

Test: In vivo biodistribution by organ and tissue extraction
Parameters: species or system male Wistar rats
Conditions: male, Wistar, total radioactivity, rat, mean ± SD; for tissue uptake dose at 48 h / SUV at 48 h: 2880 min p.i.; for tissue uptake dose at 5 min / SUV at 5 min: 5 min p.i.; for tissue uptake dose at 1 h / SUV at 1 h: 60 min p.i.; for tissue uptake dose at 4 h / SUV at 4 h: 240 min p.i.; for tissue uptake dose at 24 h / SUV at 24 h: 1440 min p.i.
Method: The present study includes data obtained from a total of 50 animals. Four animals (body weight 227 ± 10 g) for each time point were injected intravenously into a tail vein or subcutaneously with approximately 0.3 MBq ([…]) [^64Cu]Cu-NOTA-HsTX1[R14A] conjugate in 0.5 mL electrolyte solution E-153 (Serumwerk Bernburg, Germany). Animals were euthanised at 5, 60, 240, 1440 and 2880 min post-injection. Blood and the major organs were collected, weighed, and counted in a cross-calibrated γ-counter (Isomed 1000, Isomed GmbH, Dresden) and Wallac WIZARD Automatic Gamma Counter (PerkinElmer, Germany). The radioactivity of the tissue samples was decay-corrected and calibrated by comparing the counts in tissue with the counts in aliquots of the injected radiotracer that had been measured in the γ-counter at the same time. The activity in the selected organs was expressed as percent-injected dose per organ (% ID) and the activity concentration in tissues and organs as standardised uptake value (SUV). Values are quoted as mean ± standard error of mean (SEM) for each group of four animals.

[1] = lung, iv, 0.3 MBq, i.v., n=4, read-out: Lung activity amount
[2] = lung, iv, 0.3 MBq, i.v., n=8, read-out: Lung activity amount
[3] = lung, iv, i.v., n=4, read-out: Lung SUV
[4] = lung, iv, i.v., n=8, read-out: Lung SUV
[5] = lung, sc, 0.3 MBq, s.c., n=4, read-out: Lung activity amount
[6] = lung, sc, s.c., n=4, read-out: Lung SUV
[7] = muscle, iv, i.v., n=4, read-out: Muscle SUV
[8] = muscle, iv, i.v., n=8, read-out: Muscle SUV
[9] = muscle, sc, s.c., n=4, read-out: Muscle SUV
[10] = pancreas, iv, 0.3 MBq, i.v., n=4, read-out: Pancreas SUV
[11] = pancreas, iv, 0.3 MBq, i.v., n=4, read-out: Pancreas activity amount
[12] = pancreas, iv, 0.3 MBq, i.v., n=8, read-out: Pancreas SUV
[13] = pancreas, iv, 0.3 MBq, i.v., n=8, read-out: Pancreas activity amount
[14] = pancreas, sc, 0.3 MBq, s.c., n=4, read-out: Pancreas SUV
[15] = pancreas, sc, 0.3 MBq, s.c., n=4, read-out: Pancreas activity amount
[16] = spleen, iv, 0.3 MBq, i.v., n=4, read-out: Spleen SUV
[17] = spleen, iv, 0.3 MBq, i.v., n=4, read-out: Spleen activity amount
[18] = spleen, iv, 0.3 MBq, i.v., n=8, read-out: Spleen SUV
[19] = spleen, iv, 0.3 MBq, i.v., n=8, read-out: Spleen activity amount
[20] = spleen, sc, 0.3 MBq, s.c., n=4, read-out: Spleen SUV
[21] = spleen, sc, 0.3 MBq, s.c., n=4, read-out: Spleen activity amount
[22] = stomach, iv, 0.3 MBq, i.v., n=4, read-out: Stomach activity amount
[23] = stomach, iv, 0.3 MBq, i.v., n=8, read-out: Stomach activity amount
[24] = stomach, sc, 0.3 MBq, s.c., n=4, read-out: Stomach activity amount
[25] = testes, iv, 0.3 MBq, i.v., n=4, read-out: Testes SUV

## CSCC[C@@H]1NC(=O)[C@@H]2CSSC[C@H](NC(=O)[C@H](CO)NC(=O)[C@H](C)NC(=O)COCCOCCNC(=O)CN3CCN(CC(=O)O)CCN(CC(=O)O)CC3)C(=O)N[C@@H](CCCNC(=N)N)C(=O)N[C@@H]([C@@H](C)O)C(=O)N3CCC[C@H]3C(=O)N[C@@H](CCCCN)C(=O)N[C@@H](CC(=O)O)C(=O)N[C@H]3CSSC[C@H](NC(=O)[C@H](CCCCN)NC(=O)[C@H](CCCNC(=N)N)NC(=O)[C@H](CC(N)=O)NC1=O)C(=O)N[C@@H](CCCCN)C(=O)N[C@H]1CSSC[C@H](NC(=O)[C@@H]4CCCN4C(=O)[C@H](CC(=O)O)NC(=O)[C@H](C)NC3=O)C(=O)N[C@@H](C)C(=O)N[C@@H](CCCCN)C(=O)N[C@@H](CCC(=O)O)C(=O)N[C@@H]([C@@H](C)O)C(=O)NCC(=O)N[C@@H](CSSC[C@@H](C(N)=O)NC(=O)[C@H](CCCNC(=N)N)NC(=O)[C@H](CC(N)=O)NC1=O)C(=O)N1CCC[C@H]1C(=O)N[C@@H](Cc1ccc(O)cc1)C(=O)NCC(=O)N[C@@H](CCCCN)C(=O)N2 [[^64Cu]Cu-NOTA-HsTX1[R14A], metal not drawn]
liver, sc, 0.3 MBq, s.c., n=4, read-out: Liver activity amount
  tissue uptake dose at 48 h: 7.85 ± 0.49 %ID
[1]
  tissue uptake dose at 5 min: 1.44 ± 0.18 %ID
  tissue uptake dose at 4 h: 0.92 ± 0.12 %ID
  tissue uptake dose at 48 h: 0.46 ± 0.06 %ID
[2]
  tissue uptake dose at 1 h: 1.24 ± 0.3 %ID
  tissue uptake dose at 24 h: 0.5 ± 0.05 %ID
[3]
  SUV at 5 min: 2.87 ± 0.32 SUV
  SUV at 4 h: 1.24 ± 0.1 SUV
  SUV at 48 h: 0.55 ± 0.03 SUV
[4]
  SUV at 1 h: 1.98 ± 0.17 SUV
  SUV at 24 h: 0.78 ± 0.13 SUV
[5]
  tissue uptake dose at 1 h: 1.64 ± 0.24 %ID
  tissue uptake dose at 4 h: 1.04 ± 0.08 %ID
  tissue uptake dose at 24 h: 0.49 ± 0.02 %ID
  tissue uptake dose at 48 h: 0.33 ± 0.01 %ID
[6]
  SUV at 1 h: 2.1 ± 0.33 SUV
  SUV at 4 h: 1.32 ± 0.12 SUV
  SUV at 24 h: 0.63 ± 0.02 SUV
  SUV at 48 h: 0.47 ± 0.01 SUV
[7]
  SUV at 5 min: 0.43 ± 0.03 SUV
  SUV at 4 h: 0.07 SUV
  SUV at 48 h: 0.19 ± 0.01 SUV
[8]
  SUV at 1 h: 0.17 ± 0.06 SUV
  SUV at 24 h: 0.18 ± 0.02 SUV
[9]
  SUV at 1 h: 0.15 ± 0.02 SUV
  SUV at 4 h: 0.08 ± 0.01 SUV
  SUV at 24 h: 0.19 ± 0.01 SUV
  SUV at 48 h: 0.16 SUV
[10]
  SUV at 5 min: 0.64 ± 0.09 SUV
  SUV at 4 h: 0.24 ± 0.01 SUV
  SUV at 48 h: 0.32 ± 0.01 SUV
[11]
  tissue uptake dose at 5 min: 0.11 ± 0.03 %ID
  tissue uptake dose at 4 h: 0.08 %ID
  tissue uptake dose at 48 h: 0.08 ± 0.01 %ID
[12]
  SUV at 1 h: 0.3 ± 0.04 SUV
  SUV at 24 h: 0.62 ± 0.16 SUV
[13]
  tissue uptake dose at 1 h: 0.06 ± 0.02 %ID
  tissue uptake dose at 24 h: 0.2 ± 0.16 %ID
[14]
  SUV at 1 h: 0.29 ± 0.03 SUV
  SUV at 4 h: 0.25 SUV
  SUV at 24 h: 0.48 ± 0.02 SUV
  SUV at 48 h: 0.28 ± 0.02 SUV
[15]
  tissue uptake dose at 1 h: 0.11 ± 0.03 %ID
  tissue uptake dose at 4 h: 0.08 ± 0.01 %ID
  tissue uptake dose at 24 h: 0.15 ± 0.01 %ID
  tissue uptake dose at 48 h: 0.07 ± 0.01 %ID
[16]
  SUV at 5 min: 4.06 ± 0.6 SUV
  SUV at 4 h: 2.4 ± 0.1 SUV
  SUV at 48 h: 0.56 ± 0.05 SUV
[17]
  tissue uptake dose at 5 min: 0.83 ± 0.12 %ID
  tissue uptake dose at 4 h: 0.67 ± 0.06 %ID
  tissue uptake dose at 48 h: 0.16 ± 0.01 %ID
[18]
  SUV at 1 h: 3.42 ± 0.42 SUV
  SUV at 24 h: 0.83 ± 0.26 SUV
[19]
  tissue uptake dose at 1 h: 0.79 ± 0.11 %ID
  tissue uptake dose at 24 h: 0.18 ± 0.04 %ID
[20]
  SUV at 1 h: 4 ± 0.21 SUV
  SUV at 4 h: 2.84 ± 0.25 SUV
  SUV at 24 h: 0.59 ± 0.03 SUV
  SUV at 48 h: 0.47 ± 0.04 SUV
[21]
  tissue uptake dose at 1 h: 1.08 ± 0.03 %ID
  tissue uptake dose at 4 h: 0.75 ± 0.03 %ID
  tissue uptake dose at 24 h: 0.15 %ID
  tissue uptake dose at 48 h: 0.15 ± 0.01 %ID
[22]
  tissue uptake dose at 5 min: 0.67 ± 0.09 %ID
  tissue uptake dose at 4 h: 1.52 ± 1.06 %ID
  tissue uptake dose at 48 h: 1.46 ± 0.37 %ID
[23]
  tissue uptake dose at 1 h: 1.28 ± 1.2 %ID
  tissue uptake dose at 24 h: 1.56 ± 1.04 %ID
[24]
  tissue uptake dose at 1 h: 1.14 ± 0.45 %ID
  tissue uptake dose at 4 h: 0.6 ± 0.03 %ID
  tissue uptake dose at 24 h: 0.82 ± 0.07 %ID
  tissue uptake dose at 48 h: 1.72 ± 1.02 %ID
[25]
  SUV at 5 min: 0.24 ± 0.03 SUV
  SUV at 4 h: 0.13 ± 0.01 SUV
testes, iv, 0.3 MBq, i.v., n=4, read-out: Testes activity amount
  tissue uptake dose at 5 min: 0.27 ± 0.05 %ID
testes, iv, 0.3 MBq, i.v., n=8, read-out: Testes SUV
  SUV at 1 h: 0.16 ± 0.01 SUV
testes, iv, 0.3 MBq, i.v., n=8, read-out: Testes activity amount
  tissue uptake dose at 1 h: 0.23 ± 0.02 %ID
